We go through four molecules from patent US20130230528A1 (Novartis, published 2013).

Test [1] deals with T1, human CD40, soluble / recombinant (ELISA and Biacore) (human, UniProt P25942 20-193).
T1 construct: also called soluble CD40; recombinant CD40
Nature of the test: Biacore (assay named in paragraph 181). For orientation: In SPR one partner is held on a chip, and binding of the other changes the refractive index at the surface.

The target in test [2] is T2, human CD40 on the cell surface (normal B cells, B-CLL cells, EBV-transformed B cells, multiple myeloma cell … (human, UniProt P25942 20-277)). As to the kind of experiment: cell-based or functional assay.
In test [3] the target is T2, human CD40 on the cell surface (normal …). Nature of the test: cell-based or functional assay. This is another data set of the same source.
Test [4] has the same target. As to the kind of experiment: cell-based or functional assay. The source holds these as a separate data set.

T2 sequence (P25942 20-277): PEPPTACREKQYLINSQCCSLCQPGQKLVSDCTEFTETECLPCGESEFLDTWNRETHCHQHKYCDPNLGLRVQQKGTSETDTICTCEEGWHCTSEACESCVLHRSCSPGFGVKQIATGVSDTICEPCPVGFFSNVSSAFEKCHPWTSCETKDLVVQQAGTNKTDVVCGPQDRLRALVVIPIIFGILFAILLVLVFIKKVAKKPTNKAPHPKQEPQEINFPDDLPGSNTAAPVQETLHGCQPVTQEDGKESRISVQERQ
T1 sequence (P25942 20-193): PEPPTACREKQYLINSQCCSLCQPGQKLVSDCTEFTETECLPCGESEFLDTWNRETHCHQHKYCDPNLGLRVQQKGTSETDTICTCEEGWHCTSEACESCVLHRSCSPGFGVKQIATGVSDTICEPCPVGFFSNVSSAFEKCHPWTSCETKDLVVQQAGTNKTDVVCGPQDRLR

B1: CHIR-5.9 fully human anti-CD40 monoclonal antibody (antibody, V domains shown)
VH: EVQLVQSGAEVKKPGESLKISCKGSGYSFTSYWIGWVRQMPGKGLEWMGIIYPGDSDTRYSPSFQGQVTISADKSISTAYLQWSSLKASDTAMYYCARGTAAGRDYYYYYGMDVWGQGTTVTVSS
VL: AIVMTQPPLSSPVTLGQPASISCRSSQSLVHSDGNTYLNWLQQRPGQPPRLLIYKFFRRLSGVPDRFSGSGAGTDFTLKISRVEAEDVGVYYCMQVTQFPHTFGQGTRLEIKR
notes: Human IgG1 kappa from XenoMouse hybridoma; also called mAb CHIR-5.9; 131.2F8.5.9
The term Kd denotes the concentration at which binding is half-saturated. Regarding B1, in test [1], the Kd was 12 nM.

B2: CHIR-12.12 fully human anti-CD40 monoclonal antibody (antibody, human IgG1, kappa, V domains shown)
VH: QVQLVESGGGVVQPGRSLRLSCAASGFTFSSYGMHWVRQAPGKGLEWVAVISYEESNRYHADSVKGRFTISRDNSKITLYLQMNSLRTEDTAVYYCARDGGIAAPGPDYWGQGTLVTVSS
VL: DIVMTQSPLSLTVTPGEPASISCRSSQSLLYSNGYNYLDWYLQKPGQSPQVLISLGSNRASGVPDRFSGSGSGTDFTLKISRVEAEDVGVYYCMQARQTPFTFGPGTKVDIRR
notes: Human IgG1 kappa from XenoMouse hybridoma; also called 153.8E2.D10.D6.12.12
On to B2, for which the Kd in test [1] is 0.5 nM.

B3: soluble recombinant human CD40L (Alexis Corporation) (ligand)
chain: GDQNPQIAAHVISEASSKTTSVLQWAEKGYYTMSNNLVTLENGKQLTVKRQGLYYIYAQVTFCSNREASSQAPFIASLCLKSPGRFERILLRAANTHSSAKPCGQQSIHLGGVFELQPGASVFVNVTDPSQVSHGTGFTSFGLLKL
Consider B3, for which, in test [2], the “CellTiter-Glo viability, fold induction by rhsCD40L, CLL subject M1” value was 3.1 fold; the “CellTiter-Glo viability, fold induction by rhsCD40L, CLL subject M2” value amounted to 2.9 fold; the “CellTiter-Glo viability, fold induction by rhsCD40L, CLL subject M3” value is 1.9 fold; the “CellTiter-Glo viability, fold induction by rhsCD40L, CLL subject M4” value came to 2.3 fold. In test [2], the “CellTiter-Glo viability, fold induction by rhsCD40L, CLL subject M5” value came to 3.5 fold; the “CellTiter-Glo viability, fold induction by rhsCD40L, CLL subject M6” value was 2.6 fold; the “CellTiter-Glo viability, fold induction by rhsCD40L, CLL subject M7” value came to 3.8 fold; the “CellTiter-Glo viability, fold induction by rhsCD40L, Normal B” value was found to be 3 fold. In addition, in test [2], the “cPARP flow cytometry, fold inhibition by rhsCD40L, CLL subject M1” value came to 5.8 fold; the “cPARP flow cytometry, fold inhibition by rhsCD40L, CLL subject M2” value was 2.6 fold; the “cPARP flow cytometry, fold inhibition by rhsCD40L, CLL subject M3” value is 2.1 fold; the “cPARP flow cytometry, fold inhibition by rhsCD40L, CLL subject M4” value amounted to 3.2 fold. Also, in test [2], the “cPARP flow cytometry, fold inhibition by rhsCD40L, CLL subject M5” value amounted to 2.3 fold; the “cPARP flow cytometry, fold inhibition by rhsCD40L, CLL subject M6” value is 0.9 fold; the “cPARP flow cytometry, fold inhibition by rhsCD40L, CLL subject M7” value is 5.2 fold; the “cPARP flow cytometry, fold inhibition by rhsCD40L, Normal B” value came out at 3 fold.

B4: CD40L on transfected, formaldehyde-fixed CHO cells (ligand)
chain: MIETYNQTSPRSAATGLPISMKIFMYLLTVFLITQMIGSALFAVYLHRRLDKIEDERNLHEDFVFMKTIQRCNTGERSLSLLNCEEIKSQFEGFVKDIMLNKEETKKENSFEMQKGDQNPQIAAHVISEASSKTTSVLQWAEKGYYTMSNNLVTLENGKQLTVKRQGLYYIYAQVTFCSNREASSQAPFIASLCLKSPGRFERILLRAANTHSSAKPCGQQSIHLGGVFELQPGASVFVNVTDPSQVSHGTGFTSFGLLKL
With B4, in test [3], the “MCP-1 secretion, normal B cells, Donor 1, fold induction over background” value came out at 5.5 fold; the “MCP-1 secretion, normal B cells, Donor 3, fold induction over background” value is 1.7 fold; the “MIP-1β secretion, normal B cells, Donor 1, fold induction over background” value was determined as 2.2 fold; the “MIP-1β secretion, normal B cells, Donor 2, fold induction over background” value came to 2.6 fold. In test [3], the “MIP-1β secretion, normal B cells, Donor 3, fold induction over background” value worked out at 17.8 fold; the “hIL-6 secretion, normal B cells, Donor 1, fold induction over background” value worked out at 5.7 fold; the “hIL-6 secretion, normal B cells, Donor 2, fold induction over background” value was determined as 3.8 fold; the “hIL-6 secretion, normal B cells, Donor 3, fold induction over background” value worked out at 20.5 fold. In test [3], the “hIL-8 secretion, normal B cells, Donor 1, fold induction over background” value was found to be 7.7 fold; the “hIL-8 secretion, normal B cells, Donor 2, fold induction over background” value is 14.7 fold; the “hIL-8 secretion, normal B cells, Donor 3, fold induction over background” value was found to be 49.3 fold; the “hIL-10 secretion, normal B cells, Donor 1, fold induction over background” value is 3.6 fold. For the same molecule, in test [3], the “hIL-10 secretion, normal B cells, Donor 3, fold induction over background” value worked out at 3.6 fold; the “hTNF-α secretion, normal B cells, Donor 1, fold induction over background” value was determined as 3.7 fold; the “hTNF-α secretion, normal B cells, Donor 2, fold induction over background” value came out at 4.8 fold; the “hTNF-α secretion, normal B cells, Donor 3, fold induction over background” value turned out to be 22.8 fold. Moreover, in test [4], the “MCP-1 secretion, CLL cells, CLL #1, fold induction over background” value turned out to be 5.5 fold; the “hGM-CSF secretion, CLL cells, CLL #1, fold induction over background” value turned out to be 7.6 fold; the “hIL-8 secretion, CLL cells, CLL #1, fold induction over background” value worked out at 4 fold; the “hIL-10 secretion, CLL cells, CLL #1, fold induction over background” value was 9.2 fold. In addition, the “hTNF-α secretion, CLL cells, CLL #1, fold induction over background” value in test [4] was found to be 3.3 fold.
